These results are taken from US20160272693A1 (ZEALAND PHARMA A S, published 2016).

The target of this assay is T1, human amylin receptor 3 (hAMYR3), hCTR2 co-expressed with human receptor activity modifying protein 3 (hRAMP3) (human, UniProt P30988 25-474; O60896 24-148).
T1 sequence (looked up) 1: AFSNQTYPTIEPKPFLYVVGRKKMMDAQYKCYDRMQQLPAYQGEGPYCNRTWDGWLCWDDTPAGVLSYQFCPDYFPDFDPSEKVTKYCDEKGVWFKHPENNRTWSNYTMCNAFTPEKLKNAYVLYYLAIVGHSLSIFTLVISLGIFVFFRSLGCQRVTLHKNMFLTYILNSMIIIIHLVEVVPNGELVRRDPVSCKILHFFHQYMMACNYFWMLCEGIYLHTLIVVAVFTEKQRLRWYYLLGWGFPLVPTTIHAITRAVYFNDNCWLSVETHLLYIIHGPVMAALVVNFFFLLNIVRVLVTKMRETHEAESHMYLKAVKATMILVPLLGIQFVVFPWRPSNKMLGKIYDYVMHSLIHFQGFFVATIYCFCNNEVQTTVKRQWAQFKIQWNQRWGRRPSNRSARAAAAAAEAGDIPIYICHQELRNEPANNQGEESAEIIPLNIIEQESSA
T1 sequence (looked up) 2: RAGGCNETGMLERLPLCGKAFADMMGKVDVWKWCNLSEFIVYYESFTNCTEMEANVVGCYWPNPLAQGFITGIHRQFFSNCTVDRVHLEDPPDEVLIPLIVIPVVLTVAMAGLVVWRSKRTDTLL
Put plainly: cell-based or functional assay.

*1 amine or outer side, *2 acyl side, *3 side chain or, on linkers, in order; H or OH if unused. Bridges are numbered along the chain shown (N, C = ends). [ ]: non-standard residue; d: D form. The star is where a group is joined. C20 diacid = O=C(O)CCCCCCCCCCCCCCCCCCC(=O)*; γGlu = O=C(O)[C@H](CCC(=O)[*:2])N[*:1]; Hyp = O=C(O)[C@@H]1C[C@@H](O)CN1; NMeI = CC[C@H](C)[C@H](NC)C(=O)O; Sar = CNCC(=O)O

B1: [19CD]-isoGlu-R-C( )-NTAT-C( )-ATERLAHFLQRSSF-Gly(Me)-A-Ile(Me)-LSSTEVGSDT-Hyp-NH2 (Compd. 60) (peptide)
peptide: {C20 diacid-γGlu}-RCNTATCATERLAHFLQRSSF[Sar]A[NMeI]LSSTEVGSDT[Hyp]-NH2
modifications: disulfide 2-7
SMILES: CC[C@H](C)[C@@H](C(=O)N[C@@H](CC(C)C)C(=O)N[C@@H](CO)C(=O)N[C@@H](CO)C(=O)N[C@H](C(=O)N[C@@H](CCC(=O)O)C(=O)N[C@H](C(=O)NCC(=O)N[C@@H](CO)C(=O)N[C@@H](CC(=O)O)C(=O)N[C@H](C(=O)N1C[C@H](O)C[C@H]1C(N)=O)[C@@H](C)O)C(C)C)[C@@H](C)O)N(C)C(=O)[C@H](C)NC(=O)CN(C)C(=O)[C@H](Cc1ccccc1)NC(=O)[C@H](CO)NC(=O)[C@H](CO)NC(=O)[C@H](CCCNC(=N)N)NC(=O)[C@H](CCC(N)=O)NC(=O)[C@H](CC(C)C)NC(=O)[C@H](Cc1ccccc1)NC(=O)[C@H](Cc1c[nH]cn1)NC(=O)[C@H](C)NC(=O)[C@H](CC(C)C)NC(=O)[C@H](CCCNC(=N)N)NC(=O)[C@H](CCC(=O)O)NC(=O)[C@@H](NC(=O)[C@H](C)NC(=O)[C@@H]1CSSC[C@H](NC(=O)[C@H](CCCNC(=N)N)NC(=O)CC[C@H](NC(=O)CCCCCCCCCCCCCCCCCCC(=O)O)C(=O)O)C(=O)N[C@@H](CC(N)=O)C(=O)N[C@@H]([C@@H](C)O)C(=O)N[C@@H](C)C(=O)N[C@@H]([C@@H](C)O)C(=O)N1)[C@@H](C)O
Take B1: the “hAMYR3 EC50 (nM); cAMP induction” value stood at 0.09 nM.

B2: [19CD]-isoGlu-R-C( )-NTAT-C( )-ATERLAHFLQRSSF-Gly(Me)-A-Ile(Me)-LSSTEVGSNTP-NH2 (Compd. 62) (peptide)
peptide: {C20 diacid-γGlu}-RCNTATCATERLAHFLQRSSF[Sar]A[NMeI]LSSTEVGSNTP-NH2
modifications: disulfide 2-7
SMILES: CC[C@H](C)[C@@H](C(=O)N[C@@H](CC(C)C)C(=O)N[C@@H](CO)C(=O)N[C@@H](CO)C(=O)N[C@H](C(=O)N[C@@H](CCC(=O)O)C(=O)N[C@H](C(=O)NCC(=O)N[C@@H](CO)C(=O)N[C@@H](CC(N)=O)C(=O)N[C@H](C(=O)N1CCC[C@H]1C(N)=O)[C@@H](C)O)C(C)C)[C@@H](C)O)N(C)C(=O)[C@H](C)NC(=O)CN(C)C(=O)[C@H](Cc1ccccc1)NC(=O)[C@H](CO)NC(=O)[C@H](CO)NC(=O)[C@H](CCCNC(=N)N)NC(=O)[C@H](CCC(N)=O)NC(=O)[C@H](CC(C)C)NC(=O)[C@H](Cc1ccccc1)NC(=O)[C@H](Cc1c[nH]cn1)NC(=O)[C@H](C)NC(=O)[C@H](CC(C)C)NC(=O)[C@H](CCCNC(=N)N)NC(=O)[C@H](CCC(=O)O)NC(=O)[C@@H](NC(=O)[C@H](C)NC(=O)[C@@H]1CSSC[C@H](NC(=O)[C@H](CCCNC(=N)N)NC(=O)CC[C@H](NC(=O)CCCCCCCCCCCCCCCCCCC(=O)O)C(=O)O)C(=O)N[C@@H](CC(N)=O)C(=O)N[C@@H]([C@@H](C)O)C(=O)N[C@@H](C)C(=O)N[C@@H]([C@@H](C)O)C(=O)N1)[C@@H](C)O
On to B2, for which the “hAMYR3 EC50 (nM); cAMP induction” value stood at 0.22 nM.

B3: [19CD]-isoGlu-R-C( )-GTAT-C( )-ATERLAHFLNRSSF-Gly(Me)-A-Ile(Me)-LSSTEVGSNT-Hyp-NH2 (Compd. 6) (peptide)
peptide: {C20 diacid}-[γGlu]RCGTATCATERLAHFLNRSSF[Sar]A[NMeI]LSSTEVGSNT[Hyp]-NH2
modifications: disulfide 3-8
SMILES: CC[C@H](C)[C@@H](C(=O)N[C@@H](CC(C)C)C(=O)N[C@@H](CO)C(=O)N[C@@H](CO)C(=O)N[C@H](C(=O)N[C@@H](CCC(=O)O)C(=O)N[C@H](C(=O)NCC(=O)N[C@@H](CO)C(=O)N[C@@H](CC(N)=O)C(=O)N[C@H](C(=O)N1C[C@H](O)C[C@H]1C(N)=O)[C@@H](C)O)C(C)C)[C@@H](C)O)N(C)C(=O)[C@H](C)NC(=O)CN(C)C(=O)[C@H](Cc1ccccc1)NC(=O)[C@H](CO)NC(=O)[C@H](CO)NC(=O)[C@H](CCCNC(=N)N)NC(=O)[C@H](CC(N)=O)NC(=O)[C@H](CC(C)C)NC(=O)[C@H](Cc1ccccc1)NC(=O)[C@H](Cc1c[nH]cn1)NC(=O)[C@H](C)NC(=O)[C@H](CC(C)C)NC(=O)[C@H](CCCNC(=N)N)NC(=O)[C@H](CCC(=O)O)NC(=O)[C@@H](NC(=O)[C@H](C)NC(=O)[C@@H]1CSSC[C@H](NC(=O)[C@H](CCCNC(=N)N)NC(=O)CC[C@H](NC(=O)CCCCCCCCCCCCCCCCCCC(=O)O)C(=O)O)C(=O)NCC(=O)N[C@@H]([C@@H](C)O)C(=O)N[C@@H](C)C(=O)N[C@@H]([C@@H](C)O)C(=O)N1)[C@@H](C)O
As to B3, the “hAMYR3 EC50 (nM); cAMP induction” value was 0.22 nM.

B4: [19CD]-isoGlu-R-C( )-PTAT-C( )-ATQRLAHFLQRSSF-Gly(Me)-A-Ile(Me)-LSSTEVGSNT-Hyp-NH2 (Compd. 64) (peptide)
peptide: {C20 diacid}-[γGlu]RCPTATCATQRLAHFLQRSSF[Sar]A[NMeI]LSSTEVGSNT[Hyp]-NH2
modifications: disulfide 3-8
SMILES: CC[C@H](C)[C@@H](C(=O)N[C@@H](CC(C)C)C(=O)N[C@@H](CO)C(=O)N[C@@H](CO)C(=O)N[C@H](C(=O)N[C@@H](CCC(=O)O)C(=O)N[C@H](C(=O)NCC(=O)N[C@@H](CO)C(=O)N[C@@H](CC(N)=O)C(=O)N[C@H](C(=O)N1C[C@H](O)C[C@H]1C(N)=O)[C@@H](C)O)C(C)C)[C@@H](C)O)N(C)C(=O)[C@H](C)NC(=O)CN(C)C(=O)[C@H](Cc1ccccc1)NC(=O)[C@H](CO)NC(=O)[C@H](CO)NC(=O)[C@H](CCCNC(=N)N)NC(=O)[C@H](CCC(N)=O)NC(=O)[C@H](CC(C)C)NC(=O)[C@H](Cc1ccccc1)NC(=O)[C@H](Cc1c[nH]cn1)NC(=O)[C@H](C)NC(=O)[C@H](CC(C)C)NC(=O)[C@H](CCCNC(=N)N)NC(=O)[C@H](CCC(N)=O)NC(=O)[C@@H](NC(=O)[C@H](C)NC(=O)[C@@H]1CSSC[C@H](NC(=O)[C@H](CCCNC(=N)N)NC(=O)CC[C@H](NC(=O)CCCCCCCCCCCCCCCCCCC(=O)O)C(=O)O)C(=O)N2CCC[C@H]2C(=O)N[C@@H]([C@@H](C)O)C(=O)N[C@@H](C)C(=O)N[C@@H]([C@@H](C)O)C(=O)N1)[C@@H](C)O
Turning to B4, the “hAMYR3 EC50 (nM); cAMP induction” value worked out at 0.15 nM.

B5: [19CD]-isoGlu-R-C( )-NTAT-C( )-ATQRLAHFLQRSSF-Gly(Me)-A-Ile(Me)-LSSTEVGSNTP-NH2 (Compd. 61) (peptide)
peptide: {C20 diacid}-[γGlu]RCNTATCATQRLAHFLQRSSF[Sar]A[NMeI]LSSTEVGSNTP-NH2
modifications: disulfide 3-8
SMILES: CC[C@H](C)[C@@H](C(=O)N[C@@H](CC(C)C)C(=O)N[C@@H](CO)C(=O)N[C@@H](CO)C(=O)N[C@H](C(=O)N[C@@H](CCC(=O)O)C(=O)N[C@H](C(=O)NCC(=O)N[C@@H](CO)C(=O)N[C@@H](CC(N)=O)C(=O)N[C@H](C(=O)N1CCC[C@H]1C(N)=O)[C@@H](C)O)C(C)C)[C@@H](C)O)N(C)C(=O)[C@H](C)NC(=O)CN(C)C(=O)[C@H](Cc1ccccc1)NC(=O)[C@H](CO)NC(=O)[C@H](CO)NC(=O)[C@H](CCCNC(=N)N)NC(=O)[C@H](CCC(N)=O)NC(=O)[C@H](CC(C)C)NC(=O)[C@H](Cc1ccccc1)NC(=O)[C@H](Cc1c[nH]cn1)NC(=O)[C@H](C)NC(=O)[C@H](CC(C)C)NC(=O)[C@H](CCCNC(=N)N)NC(=O)[C@H](CCC(N)=O)NC(=O)[C@@H](NC(=O)[C@H](C)NC(=O)[C@@H]1CSSC[C@H](NC(=O)[C@H](CCCNC(=N)N)NC(=O)CC[C@H](NC(=O)CCCCCCCCCCCCCCCCCCC(=O)O)C(=O)O)C(=O)N[C@@H](CC(N)=O)C(=O)N[C@@H]([C@@H](C)O)C(=O)N[C@@H](C)C(=O)N[C@@H]([C@@H](C)O)C(=O)N1)[C@@H](C)O
On to B5, for which the “hAMYR3 EC50 (nM); cAMP induction” value is 0.17 nM.

B6: [19CD]-isoGlu-R-C( )-PTAT-C( )-ATERLAHFLQRSSF-Gly(Me)-A-Ile(Me)-LSSTEVGSNT-Hyp-NH2 (Compd. 63) (peptide)
peptide: {C20 diacid}-[γGlu]RCPTATCATERLAHFLQRSSF[Sar]A[NMeI]LSSTEVGSNT[Hyp]-NH2
modifications: disulfide 3-8
SMILES: CC[C@H](C)[C@@H](C(=O)N[C@@H](CC(C)C)C(=O)N[C@@H](CO)C(=O)N[C@@H](CO)C(=O)N[C@H](C(=O)N[C@@H](CCC(=O)O)C(=O)N[C@H](C(=O)NCC(=O)N[C@@H](CO)C(=O)N[C@@H](CC(N)=O)C(=O)N[C@H](C(=O)N1C[C@H](O)C[C@H]1C(N)=O)[C@@H](C)O)C(C)C)[C@@H](C)O)N(C)C(=O)[C@H](C)NC(=O)CN(C)C(=O)[C@H](Cc1ccccc1)NC(=O)[C@H](CO)NC(=O)[C@H](CO)NC(=O)[C@H](CCCNC(=N)N)NC(=O)[C@H](CCC(N)=O)NC(=O)[C@H](CC(C)C)NC(=O)[C@H](Cc1ccccc1)NC(=O)[C@H](Cc1c[nH]cn1)NC(=O)[C@H](C)NC(=O)[C@H](CC(C)C)NC(=O)[C@H](CCCNC(=N)N)NC(=O)[C@H](CCC(=O)O)NC(=O)[C@@H](NC(=O)[C@H](C)NC(=O)[C@@H]1CSSC[C@H](NC(=O)[C@H](CCCNC(=N)N)NC(=O)CC[C@H](NC(=O)CCCCCCCCCCCCCCCCCCC(=O)O)C(=O)O)C(=O)N2CCC[C@H]2C(=O)N[C@@H]([C@@H](C)O)C(=O)N[C@@H](C)C(=O)N[C@@H]([C@@H](C)O)C(=O)N1)[C@@H](C)O
On to B6, for which the “hAMYR3 EC50 (nM); cAMP induction” value is 0.37 nM.
